Data as given in patent US7067495.

Molecular target: human IL-8 in L-CMV melanoma cell conditioned medium (human) (UniProt P10145)
Assay: cell-based or functional assay

UniProt P10145, sequence (P10145 23-99 limits assumed): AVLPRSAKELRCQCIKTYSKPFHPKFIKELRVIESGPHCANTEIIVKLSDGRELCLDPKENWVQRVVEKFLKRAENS

“mouse anti-hIL-8 mAb (6214.11, R&D Systems) (antibody)” gave an inhibition of PMNLs chemotaxis induced by L-CMV CCM of 30%.
